Experimental data: the nanobody polyreactivity screen of Harvey et al. (2022)

Assay: yeast display, Sf9 membrane polyspecificity reagent, FACS + sequencing; frameworks hold sequencing errors
How it was run: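 Genes from sorted yeast were amplified by colony PCR, read by MiSeq 2 × 250 sequencing and filtered on CDR length. These cells carried a synthetic nanobody library in Saccharomyces cerevisiae BJ5465 and were sorted by FACS into low and high (top ~1%) gates on anti-HA and streptavidin fluorescence. Polyreactivity is labelled according to the gate of origin.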

Sequence	polyreactivity (PSR sort gate)
QVQLVESGGGLVQAGGSLRLSCAASGFTYSKNAMGWDRQAPAKERELVAVITRRGGSTYYADSVKGRFTISRDNAKNTVYLQMNSLKPEDTAVYYCAAASFTRRDLDYWGQGTQVTVSS	high polyreactivity
QVQVVESGGGLVQAGGSLRLSCGASGSTFQGNAMGWYRPAPGKDRALDAAISRSGGSTYADSVKGRFTISRDNAKNTVYLQMNSLKPADTAVYYCAADALYWIGRMDYWGQGTQVTVSS	low polyreactivity
QVQLVESGGGLVQAGGSLRLSCAPSGSTFYIYAMGWYRQAPGKERELVAAISTTDGTTYYADSVKGRFTISRDNAKNTVYLQMNSLKPEDTAVYYCAAEWFGSVQPAYDYWGQGTQVTVSS	high polyreactivity
HVQLQESGGGLVQAGGSLRLSCAASGSNFRWSPMGWYRLAPGKEREFVAGINRGGITNYADSVKGRFTSSRDNAKNTVYLQMNSLKPEDTALYYCAAIAYPDLPTYFDYDSDYFYRGQGTQVTVSS	low polyreactivity
QVQLVESGGVLVQAGGSLRLSCAASGSTFEYNVMGWYRPAPGKERELVAAITTGASTNYADSVKGRFTISRDNAKNTVYLQMNCLKPEDTAVYYCAARYWRVRHGSVPAYSGYDYWGLGTQVTVSS	low polyreactivity
QVQLVESGGGLVQAGGSLRLSCAASGRSFVLNAMGWYRQAPGKDRELVAAISSGGSTNYADSVKWRFTISRDNAKNTDYLQMNSLKPEDTAVYYCAGQDVNEYSAYYYWGQGTQVTGSS	low polyreactivity
QVQLVESGGGLVQAGGSLRLSCAASGFLFDFYPLGWYRPAPGKDRELVAAITNGGSTYYADSVKGRFTISRDNAKNTDYLQMNSLKPEDTAVYYCAAYYRSRHHGYDSCGQGTQVTVSS	low polyreactivity
QVQLVESGGGLVQAGGSLRISCAASGRTLRYYAMGWYRQAPGKERELVAAITSSDRTYYADSVKGRFTISRDNAKNTVYLQMNSLKPEDTAVYYCAAYRATQFGYYYWGQGTQVTVSS	high polyreactivity
QVPLVESGGGLVQAGGSLRLSCAASGYIFEKYAMGWYRHAPGKERELVAAITVTGASTYYADSVKGRFTSSRDNAKNTVYLQMNSLKPEDTAVYYGAAKTLSVGYVDPDYGRDYWGQGTQLTVSS	low polyreactivity
QVQLVESGGGLVQAGGSLRLSCAASGSTFRSYAMGGYIQAPGKERELVAAISGRGGSTYYADSVKGRFTISRDNAKNPVYLQMNSLKPEDTAVYYCNAVPGVSYWGQGLDYWGQGTQVTVSS	low polyreactivity
QVQLVESGGGLVQAGGSLRLSCAASGFIFSNYAMGWYRQAPGKERELVAAISRSGGSTYYADSVKGRFTISRDNAKNTVYLQMNSLKPEDTAVYYCAARHAPILGDHGMKYWGQGTQVTVSS	high polyreactivity
QVQLVESGGGLVQAGGSLRLSCAASGSIFAFNGMGGYRPAPGKERELVAGITISDSTNYADSVKGRFTISRDNAKNTVSLQMNSLKPEVTAVYYCNADYEQYVYWYWFIKYDYWGQVTQVTVSS	low polyreactivity
QVQLVESGGGLVQAGGSLRLSCAAYGNIFYVYVMGWYRQAPGKERELVASITSGASTYYADSVKGRFTISRDNAKNTVYLQMNSLKPEDTAVYYCAAEALGGAGDYSTLYIYDYWGQGTQVTVSS	low polyreactivity
QVQLVESGGGLVQAGGSLRLSCAASGSIFSGNTMGWYRQAPGKERELVAAISGRGSNTYYADSVKGRFTISRDNAKNTVYLQMNSLKPEDTAVYYCAAPWVVRRTAYDYWGQGTQVTVSS	high polyreactivity
QVQLVESGGGIVQAGGSHRLICAASGFTYIRYAMGWYRQAPGKERELVASISNRGGRTYYADSVKGRFTNSRDNAKNTVYLQMNSLKPEDTAVYYCAAGYSYYSWGQGTQVTVSS	high polyreactivity
QVQLVESGGGLFQAGGSLRLSCAASGTTFAYYTMGWYIQAPGTERELVAAITSGGRTSYADSVKGRFTISRDNAKNTVYLLMNSLKPEDTAFFSCAKCRKPGYYYWGQGNQVTVSS	high polyreactivity
QVQLVESGGGLYQAGGSLRLTCAASGNIFYINTMGWYRQAPGKEMELVAAIEASDGSTYYADSVKGRFTISRDKAKNTVYLLMNSLKPEVTAVNYCATRRGYDSVYYFYTLWYYYWGQGTQVTVSS	low polyreactivity
QVQLVESGGGLVQAGGSLRLICAASGFTLRHYAMGWSRQAPGKERELVAAITKSGSSTYYADSVKGRFTISRDNAKNTVYLQMNSLKPEDTAVYYCAKKTSYSYAFRYDYWGQGTQVTVSS	high polyreactivity
QVHLVESGAGLVQAGGSLSLSCAASVFTLHVYALGWYRQAPGKERELVAALSTGGNTNYADSVKGRFTISRDNAKNTVYLQMHSLKPEDTAVYYCAASNRGATRRQVNYWGQGTQVTVSS	high polyreactivity
QVQLVESGGGLVQAGGSLRLSCAASGRIKDNVMGWYRQAPGKERELVAAITRSAGRTYYADSVKGRFTISRDNAKNTVYLQMNSLKPEDTAVYYCAAQAERYGYEYWGQGTQVTVSS	low polyreactivity
QVQLVESGGGLVQAGGSLRLSCAASGGIFAYYAMGWYRQAPGKERELVAAITSRGGRTYYADSVKGRFTISRDNAKNTVYFQMNSLKPEDTEVYYCNAERFWPWDYDYWGQGTQVTVSS	high polyreactivity
QVQLVESGGGLVQAGGSLRLSCAASGSISVRNVMGWYRQAPGKERELVATIRRTGGSTSYADSVKGRFTISRDNAKNTVYLQLNSLKPEDTAVYDCADVRYTTYRRYEYWGQGTQVTVSS	low polyreactivity

Sequence	polyreactivity (PSR sort gate)
QVQLVESGGGLVQAGGSLRLSCAASGSTFLYYAMGWYIQAPGKERELVAAISRSGGNTYYADSVKGRFTISRDNAKNTVYLQMNSLKPEDTAVDYCAKSPPGRGIRRLYYYWGQGTQVTVSS	high polyreactivity
QVQLVESGGVLVQAGGSLRLSCAATGRIKDNVMGWYRQAPGKERELVAAITRSARRTYYADSVTGRFTISRDNAKNTVYLQMNSLKPEDTAVYYCAAQAERYGFEYWGQGTQVTVSS	low polyreactivity
QVQLVESGGGLVQAGGSLRLSCAASGFIFRQYVMGWYRQAPGKERELVAAISWRTTSTYYADSVKGRFTISRDNAKNTVYLQMNSLKPEDTAVYYCAAPQVWWGYYTRGVDYWGQGTQVTVSS	low polyreactivity
QVQLVESGGGLVQAGGSLRLSCAASGSIFRYNTMGWYRQAPGKERELVAAIRGDGSTNYADSVKGRFTISRANAKNTVYLQMNSLKPEDTAVYYCAVTLRGYRYAYDYWGQGTQVTVSS	low polyreactivity
QVQLVESGGGLVQAGGSLRLSCAATGSTFKWYAMGWYIQAPGKERELVDSISWTGASTYYADSVKGRFTISRDKAKNTVYLQMNSLKPEDTAVYYCAADRTYYALLWTGRSRYDYWGQGTQVTVSS	high polyreactivity
QVQLVESGGGLVQAGGSLRLSCAASGSTFWQYAMGWYRQAPGKERELVAAISYSGGSTYYADSVKGRFTISRDNAKNTVYLQMNSLKPEDTAVYYCAKEYNVGFYLVFNRFDYWGQGTQVTVSS	low polyreactivity
QVQLVESGGGLVQAGGSLRLSCAASGFIFDANAMGWYRQAPGKERELVAAISRRGGRTYYADSVKGRFTISRDNAKNTVYLQMNSLKPEDTAVYYCAADWPDASRYGGGYWGQGTQVTVSS	high polyreactivity
QVQLVESGGGLVQAGGSLRLSCASSGLIIDYYAMGWYRQAPGKERELVAAITSSSGITYYADSVKGRFTISRDNAKNTVYLQMNSLKPEDNAVYYCAAYTTYKLYEYAYWGQGTQVTVSS	low polyreactivity
QVQLVESGGGLVQAGGSLRLSCAASGFTSAVYAMGWYRQAPGKERELVAAIRRGGSTNYADSVKGRFTISRDNAKNTVYLQMNSLKPEDTAVYYCAAAGRGWFGYWGQGTQVTVSS	high polyreactivity
QVQLVESGGGLVQAGGSLRLSCAGSGFTFGKNAMGWYRQAPGKERELVAANSGRGGRTFYADSVKGRFTISRDNAKNTVYLQMNSLKPEDTADYYCAAQRYYDNQYPYEYWGQGTQVTVSS	high polyreactivity
QVQLVESGGGLVQAGGSLRLSCAASGGTFYDNDMGWYRQAPGKERELVATITYSGTSTYYADSVKGRFTISRDNAKNTVYLELNSLKTEDTAVYYCATDVLLYFEPVNLDYWGEGTQVTVSS	low polyreactivity
QVQLVESGGGLVQAGGSLRLSCAASGRIFWANTMGWYRQAPGKERELVAAITYSGDSTYYADSVKGRFTISRDNAKNTVYLQMNSLKPEDTAVYYCNAVPSKFSWAVYRGQYDYDYWGQGTQVTVSS	low polyreactivity
QVQLVESGGGLVQAGGSLRLSCAASGSTFSANAMGWYRQAPGKERELVASISRRGGSTYYADSVKGRFTISRDYAKNTVYLQMNSLKPEDTAVYYCNKRIARQGSPSEYGRSQIGYYYWGQGTQVTVSS	high polyreactivity
QVQLVESGGGLVQAGGSLRLSCAASGITFYQYAMGWSRQAPGKERELVAAIRWSGSSTYYADSVKGRFTISRDNAKNTVYLQMNSLKPEDTAVYYCAAAPGGWPGEYWGQGTQVTVSS	low polyreactivity
QVQLVESGGGLVQAGGSLRLSCAASGLIFSSYAMGLNRQAPGKEREFVAAISRTGGITYYADSVKGRFTISRDYAKNTVYLQMNSLKPEDTAVYYCNARWYDPTLKVGYWGQVTQVTVSS	high polyreactivity
QVQLVESGGGLVQAGGGLRLSCAASGRIFSPYAMGWDRQSPGKEMELVAAIRRSGVDTYYADSVKGRFTISRDNAKNTVYLQINSLKPEDTAVYYCAADPYWFFPHYDSWGQGTQVTVSS	low polyreactivity
QVQLVESGGGLVQAGGSLRLSCAASGFTFSYYSMGRYRQAPGKERELVARISFSGTRTYYADSVKGRFTISRDNAKNTVYLQMNSLKPEDTAVYYCARRYRDYGRYGYWGQGTQVTVSS	high polyreactivity
QVQLVESGGGLVQAGGSLRLSCAASGRTFSTYAMGWYRQAPGKERELFAAISSGGGRTYYADSVKGRFTISRDNAKNTVYLQMNSLKPEDTAVYYCAADRYFRSRRSYEYWGQGTQVTVSS	low polyreactivity
QVQLVESGGGLVQAGGSLRLSCAASGTFRVYAMGWYRQAPGKERELVAAISRSGTSTYYSDSVKGRFTISRDNAKNTVYLQMNSLKPEDTAVYYCNDVVRGQYDWGQGTQVTVSS	high polyreactivity
QDQLVESGGCLVQAGGSLRLSCAAYGSTFYRYTMGWYRQAPGKERELVAAISRSGGRTYYADSVKGRFTLSRDNAKNTVFVQINSLKPEDTAVYYCNAEIASSAVQAQEGDYWGQGTQVTVSS	high polyreactivity
QVQLVESGGGLVQAGGSLRLRCAASGSIFYFYAMGWYRQAPGQEREFVAAITRSGGRTYYADSVKGRFTISRDNAKNTVYLQMNSLKPEDTAVYYCDAVPYDKRKGDYWGQGTQVTVSS	high polyreactivity
